How the values were obtained:
[1] = molecular target: T1, GAL4 activation domain-MP23a fusion (pGAD10 clone MP23a, partial synapsin-like protein) (human); assay: yeast two-hybrid liquid assay (β-galactosidase)
T1 construct: Partial clone; also called SLP (MP23a)
T1 chain: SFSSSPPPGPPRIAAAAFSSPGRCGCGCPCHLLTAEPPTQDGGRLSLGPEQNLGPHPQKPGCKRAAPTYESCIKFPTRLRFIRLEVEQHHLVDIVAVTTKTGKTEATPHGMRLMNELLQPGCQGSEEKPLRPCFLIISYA

[2] = molecular target: T2, GAL4 activation domain-MP36a fusion (pGAD10 clone MP36a) (UniProt P04386 768-881); assay: yeast two-hybrid liquid assay (β-galactosidase)
T2 construct: Prey clone from a human brain cDNA library

B1: GAL4 binding domain-parkin(1-465) fusion encoded by pGBT9-parkin(1-465) (other, UniProt P04386 1-147, looked up)
chain: MKLLSSIEQACDICRLKKLKCSKEKPKCAKCLKNNWECRYSPKTKRSPLTRAHLTEVESRLERLEQLFLLIFPREDLDMILKMDSLQDIKALLTGLFVQDNVNKDAVTDRLASVETDMPLTLRQHRISATSSSEESSNKGQRQLTVSMIVFVRFNSSHGFPVEVDSDTSIFQLKEVVAKRQGVPADQLRVIFAGKELRNDWTVQNCDLDQQSIVHIVQRPWRKGQEMNATGGDDPRNAAGGCEREPQSLTRVDLSSSVLPGDSVGLAVILHTDSRKDSPPAGSPAGRSIYNSFYVYCKGPCQRVQPGKLRVQCSTCRQATLTLTQGPSCWDDVLIPNRMSGECQSPHCPGTSAEFFFKCGAHPTSDKETSVALHLIATNSRNITCITCTDVRSPVLVFQCNSRHVICLDCFHLYCVTRLNDRQFVHDPQLGYSLPCVAGCPNSLIKELHHFRILGEEQYNRYQQYGAEECVLQMGGVLCPRPGCGAGLLPEPDQRKVTCEGGNGLGCGFAFCRECKEAYHEGECSAVFEASGTTTQAYRVDERAAEQARWEAASKETIKKTTKPCPRCHVPVEKNGGCMHMKCPQPQCRLEWCWNCGCEWNRVCMGDHWFDV
notes: Yeast two-hybrid bait expressed in yeast strain Y190; also called parkin bait
fold β-galactosidase activity over negative control vector pGBT9 [1]: ~30 fold
fold β-galactosidase activity over negative control vector pGBT9 [2]: ~20 fold

Source: US8138307 (CEDARS SINAI MEDICAL CENTER, dated 2012)
